Data: patent publication US20230279491A1, “TREATMENTS FOR A SUB-POPULATION OF INFLAMMATORY BOWEL DISEASE PATIENTS” (CEDARS-SINAI MEDICAL CENTER, priority 2020, published 2023)

System: T-cells
Assay: TL1A treatment of T-cells (IL12+IL18, TL1A+IL12+IL18, untreated): miR-155, INFG and IL22 expression
Type: cell-based
From the text: T-cells were divided into 3 treatment groups: cells treated with IL12+IL18, cells treated with TL1A+IL12+IL18, and untreated cells (ut), as depicted in FIG. 13A.

[1] = TL1A+IL12+IL18 compared to no treatment or only IL12 and L18 treatment
[2] = treatment with TL1A (TL1A+IL12+IL18)

B1: TL1A: TNF Superfamily Member 15 (TL1A), cytokine encoded by TNFSF15, used to treat T-cells (protein)
chain: MAEDLGLSFGETASVEMLPEHGSCRPKARSSSARWALTCCLVLLPFLAGLTTYLLVSQLRAQGEACVQFQALKGQEFAPSHQQVYAPLRADGDKPRAHLTVVRQTPTQHFKNQFPALHWEHELGLAFTKNRMNYTNKFLLIPESGDYFIYSQVTFRGMTSECSEIRQAGRPNKPDSITVVITKVTDSYPEPTQLLMGTKSVCEVGSNWFQPIYLGAMFSLQEGDKLMVNVSDISLVDYTKEDKTFFGAFLL
FIG. 13B
  miR-155 expression: upregulation
[1]
  miR-155 3p: upregulation
  miR-155 5p: upregulation
Cells treated with TL1A (TL1A+IL12+IL18)
  IL22 mRNA: increased
[2]
  INFG secretion: increase
  levels of INFG mRNA: increase
